Laboratory results reported in US20060115897A1.

Target: C4b (UniProt P0C0L4)
Experiment: cell-based or functional assay

Sequence of C4b (P0C0L4 20-1744): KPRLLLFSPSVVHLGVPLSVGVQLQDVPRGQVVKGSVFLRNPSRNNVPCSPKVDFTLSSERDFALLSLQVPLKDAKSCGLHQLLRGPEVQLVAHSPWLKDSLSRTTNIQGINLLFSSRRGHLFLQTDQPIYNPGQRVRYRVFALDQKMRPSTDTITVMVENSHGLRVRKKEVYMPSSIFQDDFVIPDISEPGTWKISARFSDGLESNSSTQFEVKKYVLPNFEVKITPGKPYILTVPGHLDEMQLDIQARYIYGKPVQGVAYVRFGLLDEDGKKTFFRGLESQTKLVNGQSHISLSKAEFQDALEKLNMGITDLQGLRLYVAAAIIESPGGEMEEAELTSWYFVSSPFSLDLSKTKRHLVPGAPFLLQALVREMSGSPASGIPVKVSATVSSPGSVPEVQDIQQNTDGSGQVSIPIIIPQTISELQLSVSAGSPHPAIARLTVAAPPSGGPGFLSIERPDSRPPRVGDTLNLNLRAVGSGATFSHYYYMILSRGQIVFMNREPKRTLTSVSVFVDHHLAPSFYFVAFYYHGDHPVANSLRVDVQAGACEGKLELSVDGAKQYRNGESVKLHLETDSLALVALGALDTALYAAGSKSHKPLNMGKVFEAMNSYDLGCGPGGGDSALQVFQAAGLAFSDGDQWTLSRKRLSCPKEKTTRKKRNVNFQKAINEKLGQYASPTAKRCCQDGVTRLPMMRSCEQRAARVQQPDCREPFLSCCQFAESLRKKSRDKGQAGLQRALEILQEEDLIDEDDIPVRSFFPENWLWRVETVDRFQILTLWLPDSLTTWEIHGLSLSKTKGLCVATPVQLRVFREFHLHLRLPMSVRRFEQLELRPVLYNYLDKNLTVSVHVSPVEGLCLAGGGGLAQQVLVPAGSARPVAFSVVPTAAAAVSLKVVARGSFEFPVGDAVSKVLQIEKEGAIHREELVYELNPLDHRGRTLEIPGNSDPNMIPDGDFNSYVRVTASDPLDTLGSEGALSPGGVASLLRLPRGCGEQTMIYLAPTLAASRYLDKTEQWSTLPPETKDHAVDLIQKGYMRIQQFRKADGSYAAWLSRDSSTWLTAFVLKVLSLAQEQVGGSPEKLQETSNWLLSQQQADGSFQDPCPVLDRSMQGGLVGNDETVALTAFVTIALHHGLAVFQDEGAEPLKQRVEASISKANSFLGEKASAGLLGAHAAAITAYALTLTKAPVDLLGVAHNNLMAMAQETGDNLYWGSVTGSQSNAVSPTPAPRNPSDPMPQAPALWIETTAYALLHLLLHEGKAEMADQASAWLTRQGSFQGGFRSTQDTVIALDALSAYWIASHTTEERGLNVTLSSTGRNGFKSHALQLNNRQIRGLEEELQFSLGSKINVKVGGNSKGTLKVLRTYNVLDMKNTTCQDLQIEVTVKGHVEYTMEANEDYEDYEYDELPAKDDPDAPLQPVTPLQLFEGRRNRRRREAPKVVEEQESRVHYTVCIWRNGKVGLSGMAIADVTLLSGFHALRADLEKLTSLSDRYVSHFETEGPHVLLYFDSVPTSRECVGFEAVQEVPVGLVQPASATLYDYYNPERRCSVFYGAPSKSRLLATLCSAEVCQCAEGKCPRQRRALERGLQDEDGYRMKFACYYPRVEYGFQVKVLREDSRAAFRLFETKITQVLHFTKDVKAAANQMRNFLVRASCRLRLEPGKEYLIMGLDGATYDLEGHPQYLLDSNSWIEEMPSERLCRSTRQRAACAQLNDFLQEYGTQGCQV

Substance: soluble human CR1 (from UniProt P17927 42-1971) (receptor)
- time to 50% degradation of the C4bα′ chain (cofactor activity for factor I, densitometry): 15 min
